Sequences and labels used below:
B1: Ras-related protein Rab-21 (Mus musculus), P35282 (parent)
chain: MAAAGGGAAAAAGRAYSFKVVLLGEGCVGKTSLVLRYCENKFNDKHITTLQASFLTKKLNIGGKRVNLAIWDTAGQERFHALGPIYYRDSNGAILVYDVTDEDSFQKVKNWVKELRKMLGNEICLCIVGNKIDLEKERHVSIQEAESYAESVGAKHYHTSAKQNKGIEELFLDLCKRMIETAQVDERAKGNGSSQAGAARRGVQIIDDEPQAQSSGGCCSSG

In test [1] the parent is B1. The settings on record: with itb1_human ITGB1, P05556.
The test “ita2_human ITGA2, P17301” covers variants of B1. The settings on record: with ita2_human ITGA2, P17301.
Variants of B1 are the subject of test [2]. The settings on record: with itb1_human ITGB1, P05556. The source holds these as a separate data set.

This is an account of results in IntAct's records for PubMed 16754960.

ita2_human ITGA2, P17301, sequence (P17301 whole entry): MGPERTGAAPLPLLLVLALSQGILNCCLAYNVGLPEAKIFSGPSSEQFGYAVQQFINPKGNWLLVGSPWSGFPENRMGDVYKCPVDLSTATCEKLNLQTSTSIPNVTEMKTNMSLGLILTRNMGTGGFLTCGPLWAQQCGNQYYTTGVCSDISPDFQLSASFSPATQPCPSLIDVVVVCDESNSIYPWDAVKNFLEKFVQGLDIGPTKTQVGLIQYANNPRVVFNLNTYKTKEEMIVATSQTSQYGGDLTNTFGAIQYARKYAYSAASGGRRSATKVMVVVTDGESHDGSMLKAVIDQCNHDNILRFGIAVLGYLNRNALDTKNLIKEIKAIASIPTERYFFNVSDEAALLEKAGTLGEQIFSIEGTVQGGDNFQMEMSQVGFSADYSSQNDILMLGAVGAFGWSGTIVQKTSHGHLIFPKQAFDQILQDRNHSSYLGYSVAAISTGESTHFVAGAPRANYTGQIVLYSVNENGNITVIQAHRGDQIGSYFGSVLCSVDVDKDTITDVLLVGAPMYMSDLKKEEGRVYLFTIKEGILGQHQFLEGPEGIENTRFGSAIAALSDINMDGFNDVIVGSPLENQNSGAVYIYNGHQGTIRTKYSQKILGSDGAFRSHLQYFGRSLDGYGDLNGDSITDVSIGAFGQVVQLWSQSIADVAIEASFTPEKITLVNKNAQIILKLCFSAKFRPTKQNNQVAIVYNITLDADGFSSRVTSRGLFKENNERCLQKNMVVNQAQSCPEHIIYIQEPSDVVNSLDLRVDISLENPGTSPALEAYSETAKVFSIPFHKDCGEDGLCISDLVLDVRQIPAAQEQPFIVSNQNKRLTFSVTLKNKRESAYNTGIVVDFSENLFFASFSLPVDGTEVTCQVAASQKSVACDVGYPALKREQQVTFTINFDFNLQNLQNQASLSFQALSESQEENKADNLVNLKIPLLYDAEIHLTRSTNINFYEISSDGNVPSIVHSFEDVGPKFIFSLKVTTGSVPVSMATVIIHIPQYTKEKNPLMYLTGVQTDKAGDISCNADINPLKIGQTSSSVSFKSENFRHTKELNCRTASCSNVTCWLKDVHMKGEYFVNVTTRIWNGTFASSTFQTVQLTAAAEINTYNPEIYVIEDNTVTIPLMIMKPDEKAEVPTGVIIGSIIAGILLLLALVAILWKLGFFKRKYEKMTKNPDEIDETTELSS
itb1_human ITGB1, P05556, sequence (P05556 whole entry): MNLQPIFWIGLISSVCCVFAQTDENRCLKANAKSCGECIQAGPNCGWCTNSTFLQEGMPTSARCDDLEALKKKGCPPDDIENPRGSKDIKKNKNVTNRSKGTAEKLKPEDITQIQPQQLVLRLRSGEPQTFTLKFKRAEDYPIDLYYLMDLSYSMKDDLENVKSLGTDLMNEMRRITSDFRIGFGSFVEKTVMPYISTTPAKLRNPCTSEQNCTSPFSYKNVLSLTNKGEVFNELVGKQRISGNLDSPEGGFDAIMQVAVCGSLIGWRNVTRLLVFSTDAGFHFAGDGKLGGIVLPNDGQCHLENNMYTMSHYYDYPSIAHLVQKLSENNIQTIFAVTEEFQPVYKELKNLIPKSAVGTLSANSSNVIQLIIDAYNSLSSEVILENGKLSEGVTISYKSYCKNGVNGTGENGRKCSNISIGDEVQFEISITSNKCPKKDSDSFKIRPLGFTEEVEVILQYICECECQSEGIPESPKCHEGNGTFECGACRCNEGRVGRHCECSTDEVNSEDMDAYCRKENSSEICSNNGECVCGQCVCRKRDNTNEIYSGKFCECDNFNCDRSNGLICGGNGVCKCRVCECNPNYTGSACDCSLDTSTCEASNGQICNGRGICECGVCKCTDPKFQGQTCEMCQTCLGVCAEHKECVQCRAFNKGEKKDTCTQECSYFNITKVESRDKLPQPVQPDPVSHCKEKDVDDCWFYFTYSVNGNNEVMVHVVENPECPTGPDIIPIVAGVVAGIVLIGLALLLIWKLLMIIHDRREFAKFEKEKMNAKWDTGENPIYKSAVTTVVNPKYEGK

Turning to Q76L, the “effect of a mutation on the interaction” value was “increasing interaction” with itb1_human ITGB1, P05556 [1] and “increasing interaction” with ita2_human ITGA2, P17301.

With T31N, the “effect of a mutation on the interaction” value with itb1_human ITGB1, P05556 [2] is “decreasing interaction”; with ita2_human ITGA2, P17301 it was “decreasing interaction”.
